Test results as given in US20250333496A1 (Novo Nordisk, published 2025).
Residue numbers refer to the chain shown, from its start. Several values for one entry are separate records, joined by “and”; a condition that tells them apart may be missing. Equal entries are not always repeated.

B1: Polypeptide_3 (VHH)
VHH: QVQLQESGGGLVQAGGSLRLSCTTSGRTFSSYAMGWFRQAPGKEREFVADIGENADNRWYAHSVKGRFTISRDNAKNTVYLQMNSLKPEDTAVYYCAADRYGVGGGAQGYYDSWGQGTQVTVSS
notes: VHH_2.3 with C-terminal His tag extension E1; also called [VHH_2.3]-E1
B2: Polypeptide_22 (VHH)
VHH: EVQLVESGGGLVQPGGSLKLSCTTSGRRFSEYAVGWFRQGPGKEREFVADIGEQAENTWYAESVLGRFTISRDDAKNTVYLQMDSLKPEDTAVYYCAADKYGVGGNAQGYYDSWGQGTQVTVSS
notes: VHH_1.2 with C-terminal His tag extension E1; also called [VHH_1.2]-E1
B3: Polypeptide_24 (VHH)
VHH: B2 VHH with K19Q, E62H
notes: VHH_1.3 with C-terminal His tag extension E1; also called [VHH_1.3]-E1
B4: Polypeptide_27 (VHH)
VHH: B2 VHH with K19Q, R28K, S30D, G40A, Q54N, E62H
notes: VHH_1.4 with C-terminal His tag extension E1; also called [VHH_1.4]-E1
B5: Polypeptide_28 (VHH)
VHH: B2 VHH with K19Q, R28K, S30D, Q54N
notes: VHH_1.5 with C-terminal His tag extension E1; also called [VHH_1.5]-E1
B6: Polypeptide_31 (VHH)
VHH: B2 VHH with K19Q, R28K, S30D, K43Q, Q54N, Q82E, S85G
notes: VHH_1.7 with C-terminal His tag extension E1; also called [VHH_1.7]-E1
B7: Polypeptide_47 (VHH)
VHH: B2 VHH with E1Q, V2L, L11W, G40A, E62H, D74E, D84N
notes: VHH_1.15 with C-terminal His tag extension E1; also called [VHH_1.15]-E1
B8: Compound 6 (VHH)
VHH: B2 VHH with K19Q, E62H
modifications: Chem. 24 (C16 diacid substituent) on Cys in position 4 and on Cys in position 6 of the extension (SEQ ID NO: 72)
notes: Polypeptide derivative; extension E2 at the C-terminus of the VHH; also called VHH_1.3-E2 with 2x Chem. 24
B9: Compound 4 (VHH)
VHH: B2 VHH with L11W, K19Q, G40A, K43Q, E62H, D74E
modifications: Chem. 24 (C16 diacid substituent) on Cys in position 4 and on Cys in position 6 of the extension (SEQ ID NO: 72)
notes: Polypeptide derivative; extension E2 at the C-terminus of the VHH; also called VHH_1.1-E2 with 2x Chem. 24
B10: Compound 5 (VHH)
VHH: B2 VHH
modifications: Chem. 24 (C16 diacid substituent) on Cys in position 4 and on Cys in position 6 of the extension (SEQ ID NO: 72)
notes: Polypeptide derivative; extension E2 at the C-terminus of the VHH; also called VHH_1.2-E2 with 2x Chem. 24
B11: Compound 7 (VHH)
VHH: B2 VHH with K19Q, R28K, S30D, G40A, Q54N, E62H
modifications: Chem. 24 (C16 diacid substituent) on Cys in position 4 and on Cys in position 6 of the extension (SEQ ID NO: 72)
notes: Polypeptide derivative; extension E2 at the C-terminus of the VHH; also called VHH_1.4-E2 with 2x Chem. 24
B12: Compound 8 (VHH)
VHH: B2 VHH with K19Q, R28K, S30D, Q54N
modifications: Chem. 24 (C16 diacid substituent) on Cys in position 4 and on Cys in position 6 of the extension (SEQ ID NO: 72)
notes: Polypeptide derivative; extension E2 at the C-terminus of the VHH; also called VHH_1.5-E2 with 2x Chem. 24
B13: Compound 9 (VHH)
VHH: B2 VHH with G40A, Q82E, S85G
modifications: Chem. 24 (C16 diacid substituent) on Cys in position 4 and on Cys in position 6 of the extension (SEQ ID NO: 72)
notes: Polypeptide derivative; extension E2 at the C-terminus of the VHH; also called VHH_1.6-E2 with 2x Chem. 24; Chem. 31
B14: Compound 10 (VHH)
VHH: B2 VHH with K19Q, R28K, S30D, K43Q, Q54N, Q82E, S85G
modifications: Chem. 24 (C16 diacid substituent) on Cys in position 4 and on Cys in position 6 of the extension (SEQ ID NO: 72)
notes: Polypeptide derivative; extension E2 at the C-terminus of the VHH; also called VHH_1.7-E2 with 2x Chem. 24
B15: Polypeptide_49 (VHH)
VHH: B2 VHH with E1Q, G40A, Q82E, S85G
B16: Polypeptide_50 (VHH)
VHH: B2 VHH with V2L, G40A, Q82E, S85G

Key:
[1] = target: T1, human IL-6 (mature hIL-6) (human, UniProt P05231 30-212); experiment: cell-based or functional assay
[2] = target: T1, human IL-6 (mature hIL-6); experiment: SPR (format not stated)
[3] = target: T1, human IL-6 (mature hIL-6); experiment: cell-based or functional assay; remark: listed apart in the source
[4] = target: T2, recombinant human HPC4-tagged IL-6 (human, UniProt P05231 30-212); experiment: SPR, HPC4-IL-6 captured on anti-HPC4 antibody, VHH injected, 25 C, 1:1 model
T2 construct: captured on an anti-HPC4 antibody in SPR; also called HPC4-human IL6
Method: Binding of purified anti-IL-6 VHHs to recombinant human HPC4-tagged IL-6 (SEQ ID NO: 98) was probed by Surface Plasmon Resonance (SPR).
IL-6 was captured at a flow rate of 10 μL/min for 30 seconds.
Subsequently, concentration series of VHH polypeptides according to Table 33 were injected at a flow rate of 50 μL/min for 200 seconds to allow for binding to […] followed by 600 seconds running buffer (10 mM HEPES, 150 mM NaCl, 5 mM CaCl₂, 0.05% (v/v) Surfactant P20, 1 mg/mL bovine serum albumin, pH 7.4) injection allowing dissociation from IL-6. The running buffer was also used for dilution of anti-IL-6 VHHs and IL-6. Regeneration of the chip was achieved using a regeneration buffer consisting of 50 mM EDTA in running buffer without CaCl₂, 30 seconds contact time, and a 30 μL/min flow rate applied twice to the surface. The binding data were collected at 25° C. at either a Biacore instrument (Cytiva AB, Uppsala) or a Bruker SPR32 (Bruker Daltonics). Data were analysed according to a 1:1 model using either BiaEvaluation or Biacore Insight Evaluation (Cytiva AB, Uppsala) or Bruker Analyser (Bruker Daltonics).

[5] = target: T1, human IL-6 (mature hIL-6); experiment: cell-based or functional assay; remark: listed apart in the source

T2 sequence (P05231 other isoform, or with tags, fused parts or gaps limits assumed): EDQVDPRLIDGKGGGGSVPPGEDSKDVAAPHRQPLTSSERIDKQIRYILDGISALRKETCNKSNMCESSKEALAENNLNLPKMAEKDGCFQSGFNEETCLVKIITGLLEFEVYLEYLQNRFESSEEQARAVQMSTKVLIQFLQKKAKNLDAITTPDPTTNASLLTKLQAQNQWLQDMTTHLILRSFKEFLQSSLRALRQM
T1 sequence (P05231 30-212): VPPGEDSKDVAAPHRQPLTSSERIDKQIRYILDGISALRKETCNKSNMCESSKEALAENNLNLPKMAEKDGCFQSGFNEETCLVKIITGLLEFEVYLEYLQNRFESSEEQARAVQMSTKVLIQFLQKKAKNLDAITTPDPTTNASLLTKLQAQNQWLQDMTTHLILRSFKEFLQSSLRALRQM

Binder	Reporter gene-assay [pM] [1]	Kd [2]	IC 50 (nM), reporter gene assay, 0% HSA [3]	Kd [4]	koff [4]	kon [4]	IC 50 (nM), reporter gene assay, 1% HSA [3]	IC50 (nM), STAT3-luc reporter gene assay [5]	Relative IC50 to Reference Polypeptide_29 [5]
B1	39.8 pM	0.872 nM							
B2			0.029 nM	0.00721 nM	0.000147 s⁻¹	2.03e+07 M⁻¹ s⁻¹			
B3			0.019 nM	0.00321 nM	0.000132 s⁻¹	4.12e+07 M⁻¹ s⁻¹			
B4			0.026 nM	0.00755 nM	0.000163 s⁻¹	2.16e+07 M⁻¹ s⁻¹			
B5			0.027 nM	0.00508 nM	0.00013 s⁻¹	2.56e+07 M⁻¹ s⁻¹			
B6			0.023 nM	0.0175 nM	0.000154 s⁻¹	8.82e+06 M⁻¹ s⁻¹			
B7			0.017 nM		0.00014 s⁻¹ and 0.000208 s⁻¹ and 0.000137 s⁻¹	2.59e+07 M⁻¹ s⁻¹ and 1.05e+07 M⁻¹ s⁻¹ and 2.03e+07 M⁻¹ s⁻¹	0.01 nM		
B8			0.018 nM	0.0161 nM and 0.0214 nM	7.82e-05 s⁻¹ and 9.95e-05 s⁻¹	4.94e+06 M⁻¹ s⁻¹ and 4.65e+06 M⁻¹ s⁻¹	0.016 nM		
B9			0.024 nM	0.0142 nM and 0.0191 nM	6.98e-05 s⁻¹ and 9.08e-05 s⁻¹	4.9e+06 M⁻¹ s⁻¹ and 4.75e+06 M⁻¹ s⁻¹	0.015 nM		
B10			0.019 nM	0.0159 nM and 0.0214 nM	7.82e-05 s⁻¹ and 9.95e-05 s⁻¹	4.94e+06 M⁻¹ s⁻¹ and 4.65e+06 M⁻¹ s⁻¹	0.012 nM		
B11			0.025 nM	0.0252 nM and 0.0338 nM	0.000127 s⁻¹ and 0.000154 s⁻¹	5.05e+06 M⁻¹ s⁻¹ and 4.56e+06 M⁻¹ s⁻¹	0.019 nM		
B12			0.02 nM	0.0221 nM and 0.0296 nM	0.000101 s⁻¹ and 0.000123 s⁻¹	4.58e+06 M⁻¹ s⁻¹ and 4.16e+06 M⁻¹ s⁻¹	0.017 nM		
B13			0.022 nM	0.0187 nM and 0.0218 nM and 0.0223 nM	8.71e-05 s⁻¹ and 0.000105 s⁻¹ and 0.000101 s⁻¹	4.66e+06 M⁻¹ s⁻¹ and 4.82e+06 M⁻¹ s⁻¹ and 4.53e+06 M⁻¹ s⁻¹	0.014 nM		
B14			0.022 nM	0.0191 nM and 0.0208 nM	0.000108 s⁻¹ and 9.33e-05 s⁻¹	4.48e+06 M⁻¹ s⁻¹ and 5.68e+06 M⁻¹ s⁻¹	0.016 nM		
B15								0.051 nM	1.5 fold
B16								0.049 nM	1.4 fold
